Data reported in US20060159683A1 (UNIVERSITY OF ZURICH, published 2006).

Columns and labels:
[1] = molecular target: T1, epithelial glycoprotein-2 (EGP-2) on SW2 human small cell lung carcinoma cells (human, UniProt P16422 24-314); assay: RIA, 99mTc-labelled scFv on SW2 cells, 4 C
T1 construct: whole, on cells; also called GA733-2; Ep-CAM
T1 sequence (looked up): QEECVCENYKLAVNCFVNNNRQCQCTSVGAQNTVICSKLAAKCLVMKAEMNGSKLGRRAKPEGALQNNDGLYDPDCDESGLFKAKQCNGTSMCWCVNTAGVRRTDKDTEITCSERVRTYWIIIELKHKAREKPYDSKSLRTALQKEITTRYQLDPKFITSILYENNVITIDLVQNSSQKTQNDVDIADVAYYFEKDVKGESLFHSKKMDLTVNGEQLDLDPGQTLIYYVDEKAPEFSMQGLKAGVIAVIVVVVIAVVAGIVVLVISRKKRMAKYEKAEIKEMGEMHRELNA
Description: The binding affinity of the ^99mTc labelled single-chain Fv fragments was determined on SW2 cells in a radioimmunoaffinity assay (RIA). SW2 (0.5×10⁶) cells were incubated with increasing amounts of single-chain Fv fragment (100 pM-30 nM) for 1 hour at 4° C. For estimation of nonspecific binding control samples of cells were pre-incubated with a 100-fold excess of unlabelled single-chain. Fv fragment for 1 h at 4° C. The bound fraction of single-chain Fv fragment was determined in a scintillation counter. Each obtained value represents the mean of two samples. Counts per minutes (cpm) were plotted against the nanomolar concentration of single-chain Fv fragment and fitted with the non-linear regression function.
High-affinity binding with long residual time on the specific target antigen is regarded as one of the most important characteristics of antibodies for tumor targeting. To ensure that binding affinity was conserved in the grafting experiment dissociation constants of the radiolabelled single-chain Fv fragment were determined on cells in a radioimmunoactrvity assay (RIA).

[2] = molecular target: T2, recombinant soluble human epithelial glycoprotein-2 (M1-F259) with a six-histidine C-terminal tag (human, UniProt P16422 24-259); assay: SPR (BIAcore), EGP-2 immobilized, low density coating and high flow rate
T2 construct: range 1-259; In SPR it was amine-coupled to a CM-5 chip at 350 RU; also called recombinant soluble EGP-2-antigen; immobilized EGP-2
T2 sequence: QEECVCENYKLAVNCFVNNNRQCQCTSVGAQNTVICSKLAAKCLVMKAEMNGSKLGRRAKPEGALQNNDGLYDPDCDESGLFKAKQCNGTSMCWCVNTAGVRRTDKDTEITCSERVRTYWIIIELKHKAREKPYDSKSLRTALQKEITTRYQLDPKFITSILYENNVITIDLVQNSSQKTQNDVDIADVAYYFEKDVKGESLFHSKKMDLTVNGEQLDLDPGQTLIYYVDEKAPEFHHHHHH
Description: (§1) Kinetic rate constants were determined by surface plasmon resonance (SPR) with a BIAcore instrument. Recombinant soluble EGP-2-antigen was covalently coupled to a CM-5 sensor chip via free amine groups resulting, in a surface coverage of 350 resonance units. Single-chain Fv fragments were injected in increasing concentrations (0.1 nM 4.4 μM) at a flow rate of 30 μl/min of degassed PBS/0.005% Tween-20. Association and dissociation rate constants were calculated from the sensorgram the by a global curve fit using the BIAevaluation 3.0 software (Pharmacia).
(§2) To minimize rebinding effects which could lead to an underestimation of the off-rates, we used low density coating and high flow rate.

[3] = molecular target: T2, recombinant soluble human epithelial …; assay: SPR (BIAcore), EGP-2 immobilized, 20 C
Description: as §1, §2

[4] = molecular target: T3, EGF-receptor (extracellular domain) (UniProt P00533 25-645); assay: solid-phase RIA, 99mTc-labelled scFv on coated antigen
T3 construct: extracellular domain
Description: (§3) In three washing steps cells were centrifuged at 1000 g for 5 min at 4° C., the supernatants discarded and the cells re-suspended in PBS/1% BSA. The remaining radioactivity was then measured in a scintillation counter. In a further binding experiment both-scFv fragments (50 ng) were incubated with different antigens, coated (500 ng/well) on a 96 well microtiter plate, to check for cross-reactivity. The wells were washed three times with PBS/1% BSA and the radioactivity was determined.

[5] = molecular target: T4, c-erbB2 (UniProt P04626 23-652, limits assumed); assay: as above
T4 construct: also called p185Her2
Description: as §3

[6] = molecular target: T1, epithelial glycoprotein-2 (EGP-2) on …; assay: competition RIA on SW2 cells against 99mTc-labelled 4D5MOC-A and 4D5MOC-B
Description: as §3

Binder	Kd [1]	half-life of binding [2]	Kd [3]	koff [3]	kon [3]	binding result [4]	binding result [5]	binding result [6]
anti-EGP-2 scFv fragment obtained from the murine hybridoma MOC31 (scFv, 99mTc-tricarbonyl bound to the C-terminal His tag in the RIA and Lindmo assays; unlabelled in SPR, Murine scFv expressed from vector pAK400 in E. coli periplasm and purified by IMAC through its His tag; also called scFv MOC31; MOC31 scFv) scFv: DIVMTQSAFSNPVTLGTSASISCRSTKSLLHSNGITYLYWYLQKPGQSPQLLIYQMSNLASGVPDRFSSSGSGTDFTLRISRVEAEDVGVYYCAQNLEIPRTFGGGTKLEIKRTPSHNSHQVPSAGGPTANSGTSGSQVQLQQSGPELKKPGETVKISCKASGYTFTNYGMNWVKQAPGRGLKWMGWINTYTGESTYADDFKGRFAFSLETSASAAYLQINNLKNEDTATYFCARFAIKGDYWGQGTTLTVSS	10.8 nM	~38 min	3 nM	0.0003 s⁻¹	99000 M⁻¹ s⁻¹	–	–	–
anti-EGP-2 scFv fragment 4D5MOC-A (scFv, 99mTc-tricarbonyl complexed to the C-terminal His tag in the RIA and Lindmo assays; unlabelled in SPR. The tag itself is not in the letters., the others are not; Expected mass 29,855 Da; also called scFv 4D5MOC-A; graft variant 4D5MOC-A) scFv: DIQMTQSPSSLSASVGDRVTITCRSTKSLLHSNGITYLYWYQQKPGKAPKLLIYQMSNLASGVPSRFSSSGSGTDFTLTISSLQPEDFATYYCAQNLEIPRTFGQGTKVELKRTPSHNSHQVPSAGGPTANSGTSGSEVQLVESGGGLVQPGGSLRLSCAASGYTFTNYGMNWVRQAPGKGLEWMGWINTYTGESTYADSVKGRFTFSLDTSASAAYLQMNSLRAEDTAVYYCARFAIKGDYWGQGTLVTVSS	3.6 nM	–	3.5 nM	–	–	–	–	–
anti-EGP-2 scFv fragment 4D5MOC-B (scFv, 99mTc-tricarbonyl bound to the C-terminal His tag in the RIA and Lindmo assays; unlabelled in SPR, Expected mass 29,897 Da; also called scFv 4D5MOC-B) scFv: DIQMTQSPSSLSASVGDRVTITCRSTKSLLHSNGITYLYWYQQKPGKAPKLLIYQMSNLASGVPSRFSSSGSGTDFTLTISSLQPEDFATYYCAQNLEIPRTFGQGTKVELKRTPSHNSHQVPSAGGPTANSGTSGSEVQLVQSGPGLVQPGGSVRISCAASGYTFTNYGMNWVKQAPGKGLEWMGWINTYTGESTYADSFKGRFTFSLDTSASAAYLQINSLRAEDTAVYYCARFAIKGDYWGQGTLLTVSS	3.7 nM	–	3.9 nM	0.000717 s⁻¹	184000 M⁻¹ s⁻¹	no binding (tested: 50 ng scFv on 500 ng/well antigen)	no binding (tested: 50 ng scFv on 500 ng/well antigen)	–
murine monoclonal antibody MOC31 (antibody, V domains shown, Whole murine antibody from hybridoma MOC31; also called mAb MOC31) VH: QVQLQQSGPELKKPGETVKISCKASGYTFTNYGMNWVKQAPGRGLKWMGWINTYTGESTYADDFKGRFAFSLETSASAAYLQINNLKNEDTATYFCARFAIKGDYWGQGTTLTVSS VL: DIVMTQSAFSNPVTLGTSASISCRSTKSLLHSNGITYLYWYLQKPGQSPQLLIYQMSNLASGVPDRFSSSGSGTDFTLRISRVEAEDVGVYYCAQNLEIPRTFGGGTKLEIK	–	–	–	–	–	–	–	binds
